Reference: US20040214255A1 (MYRIAD GENETICS, published 2004)

B1: Insulin-Regulated Membrane-Spanning Aminopeptidase (IRAP), amino acids 750-1026 (enzyme, human, UniProt Q9UIQ6 750-1025, looked up)
chain: FDLINYLGNENHTAPITEALFQTDLIYNLLEKLGYMDLASRLVTRVFKLLQNQIQQQTWTDEGTPSMRELRSALLEFACTHNLGNCSTTAMKLFDDWMASNGTQSLPTDVMTTVFKVGAKTDKGWSFLLGKYISIGSEAEKNKILEALASSEDVRKLYWLMKSSLNGDNFRTQKLSFIIRTVGRHFPGHLLAWDFVKENWNKLVQKFPLGSYTIQNIVAGSTYLFSTKTHLSEVQAFFENQSEATFRLRCVQEALEVIQLNIQWMEKNLKSLTWWL
notes: range 750-1026; also called C-terminal portion of IRAP
B2: Tankyrase, amino acids 603-725 (enzyme, human, UniProt O95271 603-725, looked up)
chain: HLQTCRLLLSYGSDPSIISLQGFTAAQMGNEAVQQILSESTPIRTSDVDYRLLEASKAGDLETVKQLCSSQNVNCRDLEGRHSTPLHFAAGYNRVSVVEYLLHHGADVHAKDKGGLVPLHNAC
notes: range 603-725
B3: PP5, amino acids 1-150 (enzyme, human, UniProt P53041 1-150, looked up)
chain: MAMAEGERTECAEPPRDEPPADGALKRAEELKTQANDYFKAKDYENAIKFYSQAIELNPSNAIYYGNRSLAYLRTECYGYALGDATRAIELDKKYIKGYYRRAASNMALGKFRAALRDYETVVKVKPHDKDAKMKYQECNKIVKQKAFER
notes: range 1-150; also called Protein phosphatase 5

What was measured:
Test in all cases: yeast two-hybrid
[1] = target: T1, β-Spectrin, amino acids 1592-2096 (human, UniProt Q01082 1592-2096)
T1 construct: range 1592-2096; also called non-erythrocytic beta-spectrin; beta spectrin
T1 sequence (Q01082 1592-2096): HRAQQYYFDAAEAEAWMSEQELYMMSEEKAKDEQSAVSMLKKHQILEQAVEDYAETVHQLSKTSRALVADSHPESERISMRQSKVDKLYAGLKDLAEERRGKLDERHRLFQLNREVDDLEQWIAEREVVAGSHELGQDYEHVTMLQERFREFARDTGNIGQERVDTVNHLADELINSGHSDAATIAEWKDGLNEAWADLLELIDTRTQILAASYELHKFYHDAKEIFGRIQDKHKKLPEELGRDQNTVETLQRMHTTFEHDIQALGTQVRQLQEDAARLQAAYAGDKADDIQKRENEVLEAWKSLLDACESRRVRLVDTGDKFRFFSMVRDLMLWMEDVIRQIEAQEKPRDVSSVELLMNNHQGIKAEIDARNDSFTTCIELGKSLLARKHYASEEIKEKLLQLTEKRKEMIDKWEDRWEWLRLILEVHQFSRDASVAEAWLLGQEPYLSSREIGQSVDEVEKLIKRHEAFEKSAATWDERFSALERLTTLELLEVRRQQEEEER
Text: (§1) The new construct was selected directly in the yeast strain PNY200 for its ability to drive tryptophane synthesis (genotype of this strain: […] trp1-901 leu2-3,112 ura3-52 his3-200 ade2 gal4Δ gal80). In these yeast cells, the bait was produced as a C-terminal fusion protein with the DNA binding domain of the transcription factor Ga14 (amino acids 1 to 147). Prey libraries were transformed into the yeast strain BK100 (genotype of this strain: MATα trp1-901 leu2-3,112 ura3-52 his3-200 gal4Δ gal80 LYS2::GAL-HIS3 GAL2-ADE2 met2::GAL7-lacZ), and selected for the ability to drive leucine synthesis. In these yeast cells, each cDNA was expressed as a fusion protein with the transcription activation domain of the transcription factor Ga14 (amino acids 768 to 881) and a 9 amino acid hemagglutinin epitope tag. PNY200 cells (MATα mating type), expressing the bait, were then mated with BK100 cells (MATa mating type), expressing prey proteins from a prey library. The resulting diploid yeast cells expressing proteins interacting with the bait protein were selected for the ability to synthesize tryptophan, leucine, histidine, and adenine. DNA was prepared from each clone, transformed by electroporation into E. coli strain KC8 (Clontech KC8 electrocompetent cells, Catalog No. C2023-1), and the cells were selected on ampicillin-containing plates in the absence of either tryptophane (selection for the bait plasmid) or leucine (selection for the library plasmid). DNA for both plasmids was prepared and sequenced by the dideoxynucleotide chain termination method. The identity of the bait cDNA insert was confirmed and the cDNA insert from the prey library plasmid was identified using the BLAST program to search against public nucleotide and protein databases. Plasmids from the prey library were then individually transformed into yeast cells together with a plasmid driving the synthesis of lamin and 5 other test proteins, respectively, fused to the Ga14 DNA binding domain. Clones that gave a positive signal in the β-galactosidase assay were considered false-positives and discarded. […] Clones that gave a positive signal in the β-galactosidase assay were considered true positives.

PP5, amino acids 1-150 = target: B3
Text: as §1

[2] = target: T2, HSP89, amino acids 537-700 (human, UniProt P07900 537-700)
T2 construct: range 537-700
T2 sequence (P07900 537-700): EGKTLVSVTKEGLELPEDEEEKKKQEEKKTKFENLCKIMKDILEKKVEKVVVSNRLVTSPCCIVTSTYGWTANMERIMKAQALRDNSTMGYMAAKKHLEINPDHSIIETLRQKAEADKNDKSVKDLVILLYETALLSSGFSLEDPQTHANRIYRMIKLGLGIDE
Text: as §1

Binder: B1
binding result [1]: binds

Binder: B2
binding result (PP5, amino acids 1-150): binds

Binder: B3
binding result [2]: binds
